According to patent publication US20040235064A1 (YALE UNIVERSITY, published 2004):

Molecular target: T1, CZGFP (Aequorea victoria (GFP part); CZ helix …)
T1 construct: Expressed in E. coli BL21(DE3) and purified for the in vitro assays; expressed from a pET11a plasmid in the colony assays; also called EK-CGFP; C-terminal GFP fusion peptide
Assay: competition: EK peptide added to refolding NZGFP/CZGFP complex (4 µM), fluorescence at 505 nm; competitor of NZGFP
Description: For inhibition experiments all fluorescence measurements were made in triplicate on a Hitachi F-4500 Fluorescence Spectrophotometer with excitation at 475 nm and emission at 505 nm. A 1.2 mM stock solution of equimolar amounts of NZGFP/CZGFP was allowed to reassemble and fluoresce until there was no change in fluorescence (36 hours). The reassembled complex was denatured in 4 M GdmHCl for 4 hours following which different concentrations of EK peptide, NGFP, or CGFP were added and the NZGFP/CZGFP concentration adjusted to 800 μM. The samples were diluted 200 fold into 2 mM DTT, 10 mM Tris.HCl buffer at pH 7.2 to a 20 mM final concentration of Gdm.HCl and allowed to refold and fluoresce. In order to eliminate artifacts from time dependent inhibition, fluorescence measurements were made after 4 hours and after 16 hours and found to be constant.
To verify that the GRIP assay could be utilized for detecting inhibitors of protein-protein interactions (Zutshi, R., et al., 1998, Curr. Opin. Chem. Biol. 2, 62-66), a LZ peptide corresponding to the LZ present in NZGFP (FIG. 4) was synthesized. The reappearance of fluorescence of the disassembled NZGFP/CZGFP complex in an in vitro assay as a function of added peptide was monitored (FIG. 6). The EK peptide (SEQ ID NO: 1) prevented the assembly of the complex (4 μM) with an IC₅₀ value of 31 μM. […]

T1 sequence (chain, as listed by the source): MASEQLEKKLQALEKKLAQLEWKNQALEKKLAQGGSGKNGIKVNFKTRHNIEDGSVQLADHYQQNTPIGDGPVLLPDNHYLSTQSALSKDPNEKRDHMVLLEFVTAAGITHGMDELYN

B1: EK peptide (peptide)
peptide: ALKKELQANKKELAQLKWELQALKKELAQ
notes: Chemically synthesized and HPLC purified; also called LZ peptide
- IC50: 31 µM
